Experiment [1] concerns the target YA4-mutant 26S proteasome, reconstituted, LD655 acceptor-labeled on Rpt1, biotinylated core (S. cerevisiae | yeast) (UniProt P33299).
In experiment [2] the target is YA6-mutant 26S proteasome, reconstituted, LD655 acceptor-labeled on Rpt1, biotinylated core (S. cerevisiae | yeast) (UniProt P33299).
The target in experiment [3] is wild-type 26S proteasome, reconstituted, LD655 acceptor-labeled on Rpt1, biotinylated core (S. cerevisiae | yeast) (UniProt P33299).
Experiment [4] deals with T1, Rpt3 (ATPase subunit of the yeast 26S proteasome) (S. cerevisiae) (UniProt P33298).
T1 sequence: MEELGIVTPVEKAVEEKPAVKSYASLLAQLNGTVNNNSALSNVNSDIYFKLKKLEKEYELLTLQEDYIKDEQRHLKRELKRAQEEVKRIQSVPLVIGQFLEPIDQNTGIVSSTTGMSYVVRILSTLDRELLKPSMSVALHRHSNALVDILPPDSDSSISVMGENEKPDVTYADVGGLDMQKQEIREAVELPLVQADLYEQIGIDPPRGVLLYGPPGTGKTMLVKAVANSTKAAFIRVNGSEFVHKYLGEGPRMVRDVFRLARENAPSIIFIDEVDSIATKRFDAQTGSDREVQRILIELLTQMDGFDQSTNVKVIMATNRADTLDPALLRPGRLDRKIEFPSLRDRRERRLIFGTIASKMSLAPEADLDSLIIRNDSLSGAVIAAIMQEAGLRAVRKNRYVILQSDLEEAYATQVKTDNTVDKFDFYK

Experiment [5] concerns the target YA4-mutant 26S proteasome, reconstituted, LD655 acceptor-labeled on Rpt1, biotinylated core (S. cerevisiae | yeast) (UniProt P33299). This is another data set of the same source.
In experiment [6] the target is YA6-mutant 26S proteasome, reconstituted, LD655 acceptor-labeled on Rpt1, biotinylated core (S. cerevisiae | yeast) (UniProt P33299). This is another data set of the same source.
The target of experiment [7] is wild-type 26S proteasome, reconstituted, LD655 acceptor-labeled on Rpt1, biotinylated core (S. cerevisiae | yeast) (UniProt P33299). The source holds these as a separate data set.
Experiment [8] deals with T1, Rpt3 (ATPase subunit of the yeast 26S proteasome) (S. cerevisiae). The source holds these as a separate data set.

Turning to “ubiquitinated titin I27^V15P substrate, LD555 donor-labeled (from UniProt P0CG63 1-76)”, the combined time constant for substrate binding, tail insertion and engagement; bulk stopped-flow FRET, Cy3-labeled proteasome with oPA, 2 µM Cy5-labeled substrate, 25 °C in experiment [1] was determined as 14.3 s; in experiment [2], 18 s; in experiment [3] it was 6.8 s.
In experiment [4], “Rpt6 E140A (from UniProt Q01939 1-405) (natural protein)” registered a basal ATPase rate of the reconstituted proteasome with Rpt6 E140A (NADH-coupled assay) of 108 min⁻¹.
On to “ubiquitinated titin I27 substrate, LD555 donor-labeled (from UniProt P0CG63 1-76)”, for which the frequency of terminal release of titin I27 during the unfolding dwell, single-molecule FRET came to 37.5% in experiment [5], 33.3% in experiment [6] and 18.1% in experiment [7].
In experiment [8], “Rpt6 with the pore-1 loop Tyr to Ala mutation (YA6) (from UniProt Q01939 1-405) (natural protein)” displayed a basal ATPase rate of the reconstituted YA6 proteasome (NADH-coupled assay) of 101 min⁻¹.
The substance “Rpt6 K141A (from UniProt Q01939 1-405) (natural protein)” showed a basal ATPase rate of the reconstituted proteasome with Rpt6 K141A (NADH-coupled assay) in experiment [4] of 87 min⁻¹.

Source of the values: publication PMC13186983.
